Assay results as given in the DeepSol protein solubility set.

assay: soluble on expression in E. coli; label from the status in PepcDB or PDB records

Row | Sequence | soluble on expression in E. coli
1 | MRVFYDKDCDLSIIQGKKVAIIGYGSQGHAHACNLKDSGVDVTVGLRSGSATVAKAEAHGLKVADVKTAVAAADVVMILTPDEFQGRLYKEEIEPNLKKGATLAFAHGFSIHYNQVVPRADLDVIMIAPKAPGHTVRSEFVKGGGIPDLIAIYQDASGNAKNVALSYACGVGGGRTGIIETTFKDETETDLFGEQAVLCGGCVELVKAGFETLVEAGYAPEMAYFECLHELKLIVDLMYEGGIANMNYSISNNAEYGEYVTGPEVINAESRAAMRNALKRIQDGEYAKMFITEGAANYPSMTAYRRNNAAHPIEQIGEKLRAMMPWIAANKIVDKSKN | soluble
2 | HDLALSGNAYKVRLFLSLIGREATLRPVDFLNREHKTQAFLRMNPRGQIPVLEDGELQLGDSHAILVYLARRHADPVWYPLDPVSQGRIAYWLSYSANEVQNGPASARLITRFNLPLDREQTHQRGLEVLRLVDRHLAEHRWLAQGEQPSIADVALYPYLALAPEGGLALDHYPALNAWIARIRALPGYIPMPGL | not soluble
3 | MAHHHHHHMSSNDGLSEDTVMYIKDNNIGQLMEYILRCIITDKPTKPLEYVHELTASPLPPRVVLAGPPASGKGTQARHICSYYKRAIGKKPVHVSSGDLLRAEVAQGTHLGKIAENFMQRGELVPDSLIISIIRNRLTQEDAVMNGWLLDGFPRTRSQAIALDAAGLCPRIFVVLDTPDDVLFGRVEGRRTDPVTGIIYHLKYNPPPENDTALLERLQHRDDDTREVLGPRLETYHSMVEGLLDYYGSIMYHVDGNRPEAAITKDITEYLQNHNVA | soluble
4 | MSYKSSKYNLFIERKREVISFNTLRNIIAKCDIETKEILENETFNKLPPDLLNKMISEGIIVNKELNELNIIKLTRMMYYGQLLHYLSIGLTLVMTYSCNLRCPYCYEGDIKSKGGLLTREKIETILTFASAHAQGDKKPTISVSFYGGEPLLNWKGCEYTLQRLEEMKENKEIRDYSAGFVTNGTLINEDIVDAINNYNVYSMQITLDGPKEIHDKRRIKSNGEGTFDQIIENIKLLNRRIANKNFHLALRINVDKTNYKKIPELLDFLKDEGLGGIPISYGIVRGNLPYCSSNCGVYFSGSDLQKYLPYLWKEAYRRGFEVWTRPNLRFIYCGYDNPFGYVIDPELKVYPCWEMVGIEDYQIGEIQKDGTMKITPFYYDAKSRDPTEYDECKNCKLLPVCMGGCAMESIRKNGHPNGPGCDINKYIWKEGLKFYLMKKYPNLFSKETLIENLGRVPNRDEQTKNRIMFNT | not soluble
5 | MKNFHPTGNCPVRDVISRLGDKWSMLVLITLNANGTMRFSDIHKTIEDISQRMLTVTLRTLESDGLIERKIYAEVPPRVEYYLTDTGGTLIPHIEGLVGWALENMDTILEHRKSN | not soluble
6 | MGSDKIHHHHHHMKIAFDVDVIKHLPITQMVRQVSEWGYKYIEQSPHPRINPFYKHPKAGRDTMQEYKRALQNYGVEISSFIVVYRWSGPDEERRRAAVTNWKRMIEIAVDMGVQVINTELSGTPDEPEICEEMWYRSMEELLPIVEREGIRIEIQSHPWDFCELNDETVDMVQSLRSDNVTYLYSAPHGFFYDKGQGDVARMLNYAGADLSHVLLADTHNHTLPCRYIMNPPGVNATIHQHIGLGEGEVDFDALFQALREMDFANRTFKVGGEAIITTSLFGYPEKMSVQAVETRERIERELLGR | not soluble
7 | VVLSTAFSQMFGIDYPIVSAPMDLIAGGELAAAVSGAGGLGLIGGGYGDRDWLARQFDLAAGAPVGCGFITWSLARQPQLLDLALQYEPVAVMLSFGDPAVFADAIKSAGTRLVCQIQNRTQAERALQVGADVLVAQGTEAGGHGHGPRSTLTLVPEIVDLVTARGTDIPVIAAGGIADGRGLAAALMLGAAGVLVGTRFYATVEALSTPQARDPLLAATGDDMCRTTIYDQLRRYPWPQGHTMSVLSNALTDQFEDTELDILHREEAMARYWRAVAARDYSIANVTAGQAAGLVNAVLPAADVITGMAQQAARTLTAMRAV | not soluble
8 | MVAVSFGAAFRETLEGSGNPQDEFEKLEFEEAYWPELYTTRGPEDDEIYQPFIGPWDYETDLPELHETQGPEDNEVYQPFPGPCFP | not soluble
9 | MAKGQNAPIRRRTLTRDKVVDAAIEIIDEHGWEQLSMTSLSARLNVVTASLYNHVRNLDDIRGAVQVRTMTELGAHLREIAMGRTGPDGLRALVDAHRAWATQHPHRYQTLTTSPVDRDAFISAALDANTALRTMLASCGLPPEDTLDAAVSIFAAMHGFVMLVNTDFLGDELDLDSIYESVLRGALSSVGWPERTHTPS | not soluble
10 | MGSLYTSELSRAVSESVAAALQRSFQGELRSASALGSGWSTSAELLNRNDSTERYFVKLSEPQAVSMFSAEFEGIQAMAESETVRVPAPICYGNTAERSFIVLEYLELGGIGNEAVYRDFGEKLAAMHRCSSGGRGYGWHRGNTIGSTPQLNTWMHSWADFFVENRLRYQLKLARSRQGGRLRNEDALLQRVHSVLQEHEIQHQVTPSLVHGDLWTGNVATLRNQNEVVIFDPATYYGDREVDLAMTELFGRLPRAFYQAYDASWPLPKGYREKRRVIYNLYHILNHGALFGGGYYDQAQSMIETILR | soluble
11 | MPAENIVEVHHLKKSVGQGEHELSILTGVELVVKRGETIALVGESGSGKSTLLAILAGLDDGSSGEVSLVGQPLHNMDEEARAKLRAKHVGFVFQSFMLIPTLNALENVELPALLRGESSAESRNGAKALLEQLGLGKRLDHLPAQLSGGEQQRVALARAFNGRPDVLFADEPTGNLDRQTGDKIADLLFSLNREHGTTLIMVTHDLQLAARCDRCLRLVNGQLQEEA | soluble
12 | VAASWREQFIRAEQTHWDAVTETASETYWEGGVLSDVTALAPDPATLFISNSMPIRDMDRFGGPRDADLTVLGNRGASGIDGITSTALGAGSATSDPLVLVTGDLAYYHDMNGLLALGRCAVDATVVLLNNDGGGIFHMLPIEDHPTFEDQFRTPHGLDFEPTEALYSLQFERVADRRQFRERFAESVQTDGTQVIEVRFDAGDSHAVRDQLTE | not soluble
13 | MKDIEKARRYLRNAGEMLRKNEVDEDGIYNNRKHVKIAGNRAYSGVLTALDAVLGNKTSDRKTLDWYEEELTNIDPKILPYFLTAYDVLYLAMGYDGNLIAAISKEGLDIAEKIINWAEQRTAA | not soluble
14 | MSLATTTSTDNTGLLDVLAPAYKKDTGVDLKWVAVGTGNALKLGENCDVDVVFVHAPKVELEYVEKGFGIDRTPVMYNDFVIIGNPSFKQKFTGMSVAEAFKLIEKEQVKFVSRGDKSGTHSKEREVWKEALGKIPEKESWYIEAGQGMLATINIAEEQKGLTLTDRGTFIKYESNHKGKPPMVIVLEGDNTLKNFYSIMAVNPKRCEKADYKGAKQFIDWIVSEKMQAEIANFKLLDKQLFTPDAKTREGHHHHHH | soluble
15 | MAHHHHHHMINSVYHSKKACVEALRAVERLQPSWWTPPCSEFLHRVEQTPTVTAQPNQKTLIVLEGIDGVGKSLVAQSLIEKLGDSAVLIRTPHPDLSGIRETFRAQTEETARAFYSAANYLAAWDAFHATKERKFVVFDRWWCSTCAMALANSCRLAALPAAGDAVYQWPQDLPPFQLGALLYVEEHIRQARIRQRAPEDAEERRLRAQQEMREVAMEAYRRFGLLNEVHVATYGVAVNRILALMTEKGLPHSATPFSAEELAALRQI | soluble
16 | REIGENTYIVEGSMTLNDFNEHFDTELESDDVDTIAGYYLTGVGAIPTQEVKEHYEVINKDKRLEFINDKVKDGRVTKLKVIITAAPEEAGE | not soluble
17 | MLAQCFQPNSSGIYPQEKLPLILETGVSPDYALIDSGNGKKLERYGAYRIIRPEGQALWKPALSEKHWANVDAIFTGNRDEEGVGRWYFPKKPLDETWPLSWNGLSFLGRFTSFRHVGVFPEQDAHWRFMEKQIVNATRPIKLLNLFGYTGIASLISARAGANVTHVDASKKAIAWAKANQEKAGLSDRSIRWICDDAVKFVERELRRQKTYDMILLDPPAYGRGPHGEIWQLFDHLPAMITNCRKLLSDEPLAVVLTAYSIRASFYALHTLMRDEFINLGGTVESGELILREKTTGRALSTSLFSRWIA | not soluble
18 | MAHHHHHHMNTDERYKLLRSVGEECIQESELRNLIEKKPLIRCYDGFEPSGRMHIAQGIFKAVNVNKCTAAGCEFVFWVADWFALMNDKVGGELEKIRIVGRYLIEVWKAAGMDMDKVLFLWSSEEITSHADTYWRMVLDIGRQNTIARIKKCCTIMGKTEGTLTAAQVLYPLMQCCDIFFLKADICQLGLDQRKVNMLAREYCDLIGRKLKPVILSHHMLAGLKQGQAKMSKSDPDSAIFMEDTEEDVARKIRQAYCPRVKQSASAITDDGAPVATDDRNPVLDYFQCVVYARPGAAATIDGTTYATYEDLEQAFVSDEVSEDALKSCLIDEVNALLEPVRQHFASNEEAHELLEAVKSYRKDGATLPLAETALPAAPAKPHACMWMPALLKVPLDVAEGMIKVTKDFIAAHPEGTVTLVLPDWSAVASDEITGVEKDISAALQVNCALLKAYGLPSSVKIVTENEVILGNCDDFWVSVIGIARKNLLSHVEELYGGEVRNAGQVIAALMRVATALMLSVSHVISTSLDGHINAFAREYTKERIDCVQTLEGRIPALHRPGAAPAVLGADDVLYLDDNDMDIRRKIKKAYSAPNEEANPVISVAQHLLAQHGALSIERGEANGGNVSYNTPEALVADCGSGALHPADLKAAVLQLLLDRSAQARALLNGELKKNMTVLRNAEKKMAKKR | soluble
19 | MSLADPGREGHLEQRILQVLTEAGSPVKLAQLVKECQAPKRELNQVLYRMKKELKVSLTSPATWCLGGTDPEGEGPAELALSSPAERPQQHAATIPETPGPQFSQQREEDIYRFLKDNGPQRALVIAQALGMRTAKDVNRDLYRMKSRHLLDMDEQSKAWTIYRPEDSGRRAKSASIIYQHNPINMICQNGPNSWISIANSEAIQIGHGNIITRQTVSREGHHHHHH | not soluble
20 | MLKSIELNSHIRNRLAEYLKGRGMDFQTAMQEEKGNKEIAAIVHSGLPTLVRKLYSEQKMQKFFWEKRDLIADYISRRMQG | not soluble
21 | MEFTLLGWPEDGHRLRLDYKQFAYAGKFVMTSTGKAVIGDDGVVAAAAFDADRTDPDTLCVRYITVRQDRQGDRLGARLLRFVRERATERGFEHVSIGVNNPFSYQAAYRAGFCFSGAESGMAELDLVWPGDRSTERYQAGLDLFRERDLSPDEESFLAAKADADPPTVLNEWAEQPSARTD | not soluble
22 | MAKAGREGPRDSVWLSGEGRRGGRRGGQPSGLDRDRITGVTVRLLDTEGLTGFSMRRLAAELNVTAMSVYWYVDTKDQLLELALDAVFGELRHPDPDAGLDWREELRALARENRALLVRHPWSSRLVGTYLNIGPHSLAFSRAVQNVVRRSGLPAHRLTGAISAVFQFVYGYGTIEGRFLARVADTGLSPEEYFQDSMTAVTEVPDTAGVIEDAQDIMAARGGDTVAEMLDRDFEFALDLLVAGIDAMVEQA | soluble
